Experimental findings from patent US20190248902A1 (published 2019) are described below.

Changes are numbered by the printed parent chain.

First the molecules themselves.
T1: Dog ASGR-1 (dog)
T1 construct: Expressed on HEK 293 cells or as membrane prep on beads; cDNA GenBank XM_546579
T1 chain: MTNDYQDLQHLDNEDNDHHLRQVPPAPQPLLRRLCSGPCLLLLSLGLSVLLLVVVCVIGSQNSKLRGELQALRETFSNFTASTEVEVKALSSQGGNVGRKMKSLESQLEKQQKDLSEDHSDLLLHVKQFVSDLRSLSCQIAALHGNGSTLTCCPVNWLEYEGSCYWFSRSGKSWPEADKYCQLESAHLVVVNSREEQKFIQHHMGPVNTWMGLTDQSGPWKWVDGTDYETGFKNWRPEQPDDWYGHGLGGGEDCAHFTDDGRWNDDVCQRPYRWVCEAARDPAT

T2: Pig ASGR-1 (pig)
T2 construct: Expressed on HEK 293 cells or as membrane prep on beads; cDNA GenBank NM_001244458
T2 chain: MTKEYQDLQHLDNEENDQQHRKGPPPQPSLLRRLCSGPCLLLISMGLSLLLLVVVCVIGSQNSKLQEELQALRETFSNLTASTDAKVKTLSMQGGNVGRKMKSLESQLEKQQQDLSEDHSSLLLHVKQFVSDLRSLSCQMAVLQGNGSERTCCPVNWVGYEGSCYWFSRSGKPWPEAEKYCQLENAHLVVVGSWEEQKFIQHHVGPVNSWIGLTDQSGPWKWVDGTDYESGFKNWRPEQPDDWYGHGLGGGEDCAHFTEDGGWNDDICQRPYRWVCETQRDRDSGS

T3: Rat ASGR-1 (rat, UniProt P02706 1-284)
T3 construct: Expressed on HEK 293 cells or as membrane prep on beads; cDNA GenBank NM_012503
T3 sequence: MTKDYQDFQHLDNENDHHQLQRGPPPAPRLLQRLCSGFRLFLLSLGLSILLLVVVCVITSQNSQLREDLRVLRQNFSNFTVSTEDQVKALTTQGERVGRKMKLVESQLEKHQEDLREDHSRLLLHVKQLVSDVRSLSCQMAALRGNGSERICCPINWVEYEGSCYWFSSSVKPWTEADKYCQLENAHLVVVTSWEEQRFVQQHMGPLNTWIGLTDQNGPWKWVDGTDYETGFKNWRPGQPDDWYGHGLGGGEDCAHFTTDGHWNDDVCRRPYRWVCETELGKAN

T4: Mouse ASGR-1 (mouse, UniProt P34927 1-284)
T4 construct: Expressed on HEK 293 cells or as membrane prep on beads; cDNA GenBank BC022106.1; also called muASGR-1; mASGR-1
T4 sequence: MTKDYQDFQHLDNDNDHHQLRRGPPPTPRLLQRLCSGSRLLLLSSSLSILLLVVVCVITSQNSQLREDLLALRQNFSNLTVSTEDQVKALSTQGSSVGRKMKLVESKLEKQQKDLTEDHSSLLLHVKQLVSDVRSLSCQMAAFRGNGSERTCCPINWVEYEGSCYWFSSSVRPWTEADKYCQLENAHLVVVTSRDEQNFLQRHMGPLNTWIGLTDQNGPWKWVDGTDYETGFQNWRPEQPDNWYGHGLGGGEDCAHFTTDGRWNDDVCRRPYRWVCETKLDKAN

B1: 26C4 (antibody, V domains shown)
VH: QVQLVQSGAEVKKPGASVKVSCKASGYTFTNYDINWVRQASGQGLEWMGWMNPNSGNTGYAQRFQGRVTMTRNTSINTAYMELSSLRSEDTAVYYCASSSGWYYFDYWGQGTLVTVSS
VL: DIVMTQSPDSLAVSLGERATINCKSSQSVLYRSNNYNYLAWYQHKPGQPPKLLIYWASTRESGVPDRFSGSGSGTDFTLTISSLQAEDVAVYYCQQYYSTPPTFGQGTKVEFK
notes: Tested as hybridoma supernatant at normalized concentration
B2: 4A2 (antibody, V domains shown)
VH: B1 VH with A9T, S41T, N52H, R63K, M70L, N77S
VL: DIVMTQSPDSLAVSLGERATINCKSSQSILHSSNNNNYLAWFQQKPGQPPKLLLYWASTRESGVPDRFSGSGSGTDFTLTISSLQPEDVAVYYCQQYYNTPVTFGPGTKVGIK
notes: as for B1
B3: 29H8 (antibody, V domains shown)
VH: B1 VH with K12Q, S41T, N77S, T78A
VL: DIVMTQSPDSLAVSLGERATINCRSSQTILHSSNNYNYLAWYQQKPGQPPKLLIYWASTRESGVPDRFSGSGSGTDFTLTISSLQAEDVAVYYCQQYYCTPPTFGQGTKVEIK
notes: as for B1
B4: 5E5 (antibody, V domains shown)
VH: QVQLVESGGGVVQPGRSLRLSCAASGFTFSNYVMHWVRQAPGKGLEWVAVIWYDGSNKYYADSVKGRFTISRDNSKNTLYLQMNSLRAEDTAVYYCTREVYSSGWYDYGMDVWGQGTTVTVSS
VL: DIQMTQSPSSLSASVGDRVTITCRASQGIRNDLGWYQQKPGKAPKRLIYAASSLQSGVPSRFSGSGSGTEFTLTISSLQPEDFATYYCLQHYSYPRTFGQGTKVEVK
notes: as for B1
B5: 4H6 (antibody, V domains shown)
VH: QVQLVQSGAEVKKPGASVKVSCKASGYTFTDYYLHWVRQAPGQGLEWMGWIHPNSGGTNYAQKFQGRVTMTRDTSISTAYMGLSSLRSDDTAVYYCARDGTSSFDYWGQGTLVTVSS
VL: DIQMTQSPSSVSASVGDRVTITCRASQGISRWLAWYQQKPGKAPKLLIYGASSLQSGVPSRFSGSGSGTDFTLTISSLQPEDFAIYYCQQANSFPFTFGPGTKVDIK
notes: as for B1
B6: 22G5 (antibody, V domains shown)
VH: EVQLLESGGGLVQPGGSLRLSCAASGFTFSSYAMNWVRQAPGMGLEWVSVISRSGGYTYYADSVKGRFTISRDNSKNTLYLQMNSLRAEDTAVYYCASRLAVAGSEAFDIWGQGTLVTVSS
VL: DIQMTQSPSSLSASVGDRVTITCRASQNISSYLNWYQQKQGKAPKLLIYAASSLQNGVPSRFSGRGSGTDFTLTISSLQPEDFATYYCQQSYRTPLFTFGPGTKVDFK
notes: as for B1
B7: 193E7 (antibody, V domains shown)
VH: QVQLQQWGAGLLKPSETLSLTCAVYGGSFSGYFWTWIRQPPGKGLEWIGEINHSGSTNYNPSLKSRVTISVDTSKNQFSLKLSSVTAADTAVYYCARDYGADYWGQGTLVAVSA
VL: B4 VL with A50S, S56R, Y92K, S93R, R96L, Q100G, V106I
notes: as for B1
B8: 54E9 (antibody, V domains shown)
VH: QVQLVQSGAEVKKPGASVKVSCKASGYTFNSYGISWVRLAPGQGLEWMGWISAYNGNTKNAQKLQGRVTMTTDTSTSTAYMELRSLRSDDTAVYYCARHDFWSGYYKGMDVWGQGTTVTVSS
VL: not shown
notes: as for B1
B9: 184E7 (antibody, V domains shown)
VH: QVQLVQSGAEVKTPGASVKVSCRASGYTFTSYNMHWVRQVPGQGLEWMGWINPNNGGSNYTQKFQGRVTMTRDTSISTAYMELSRLRSDDTAVYYCARKFGDWGQGTLVTVSS
VL: DIQMTQSPSSRSASIGERVTITCRASQGISNYLAWIQQKPGTAPKSLIYAASSLQSGVSSRFSGSGFGTDFTITISSVQREDFATYYCQQYNGYPFTFGHGTKVDIK
notes: as for B1
B10: 72G9 (antibody, V domains shown)
VH: EVQLVESGGGLVKPGGSLRLSCAASGFTFSSYSMNWVRQAPGKGLEWVSSISGSSSYIYYADSVKGRFTISRDNAKNSLYLQMNSLRAEDTAVYFCARGGSRGFDPWGQGTLVTVSS
VL: B5 VL with V11L, G28S, S30T, R31S, W32Y, A34N, G50T, I85T, A91S, N92H
notes: as for B1
B11: 4B1 (antibody, V domains shown)
VH: QVQLQESGPGLVKPSETLSLTCSVSGDSISSYSWSWIRQPAGKGLEWIGRIYTSGSTNYIPSLKSRITMSVDTSKKQFSLKLSSVTAADTAVYYCARDLKSSGCLFFDYWGQGTLVTVSS
VL: DIQMTQSPSSLSASVGDRVTITCRASHTIRTYLNWYQQKPGKAPKLLIYAASSLQSGVPSRINGSGSGTDFTLTITNLQPEDFATYYCQQSYNISFTFGPGTKVDIK
notes: as for B1
B12: 12D2 (antibody, V domains shown)
VH: EVQLVESGGGLVKPGGSLRLSCAASGFTFSSYSMNWVRQAPGKGLEWVSSISSSSSYIYYADSVKGRFTISRDNAKNSLYLQMNSLRAEDTAVYYCARLGDYWGQGTLVAVSS
VL: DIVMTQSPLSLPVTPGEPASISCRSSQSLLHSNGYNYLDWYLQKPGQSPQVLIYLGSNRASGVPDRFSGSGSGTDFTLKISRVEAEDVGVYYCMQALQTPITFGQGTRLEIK
notes: as for B1

For the first assay, the target named is T1, Dog ASGR-1. Put plainly: FACS on transfected HEK 293 cells or membrane preps on beads; binding = signal at least 2x irrelevant IgG. An outline of the steps: (§1)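 Antibodies at normalized concentrations bound 1 h at 4° C to HEK 293 cells expressing each antigen, then Alexa Fluor 647 anti-Fc plus 7-AAD 15 min at 4° C, flow cytometry; empty-vector cells as negative. Alternatively, species ASGR-1 membrane preps on streptavidin beads, antibody 1 h RT, Alexa Fluor 488 anti-Fc; FACS buffer with 1 mM CaCl2 throughout.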
In the case of B1, the binding result was “no binding”.
On the same count and under the same terms, the value for B2 was “no binding”; that for B3 was “no binding”; that for B4 was “no binding”.
Consider B5, for which the binding result was “no binding”.
Take B6: the binding result is “no binding”.

Another assay addresses T2, Pig ASGR-1. Described as above. An outline of the steps: as §1
In the case of B7, the binding result is “no binding”.
Still for that read-out and setting: the value for B4 was “no binding”; that for B6 was “no binding”.
Still for that read-out and setting: the value for B8 was “no binding”.

The next assay concerns the target T3, Rat ASGR-1. The description is as above. An outline of the steps:
as §1
In the case of B7, the binding result is “no binding”.
Same read-out and setting: the value for B6 was “no binding”; that for B8 was “no binding”.

The target in the next assay is T1, Dog ASGR-1. Put plainly: FACS on transfected HEK 293 cells or membrane preps on beads; Y = signal at least 2x irrelevant IgG. An outline of the steps: as §1
On to B9, for which the binding result is reported as “binds”.
Regarding B7, the binding result is given as “binds”.
Take B10: the binding result is “binds”.
On the same count and under the same terms, the value for B11 was “binds”; that for B8 was “binds”; that for B12 was “binds”.

A further assay deals with T4, Mouse ASGR-1. Described as above. An outline of the steps:
as §1
Turning to B9, the binding result is listed as “binds”.
Take B5: the binding result is given as “binds”.
Take B10: the binding result is “binds”.
As for B11, the binding result is “binds”.
Still for that read-out and setting: the value for B12 was “binds”.

The target in another assay is T3, Rat ASGR-1. The assay is described as above. An outline of the steps: as §1
On to B1, for which the binding result is on record as “binds”.
Turning to B2, the binding result is listed as “binds”.
On the same count and under the same terms, the value for B3 was “binds”.
For the molecule B9, the binding result was “binds”.
Consider B4, for which the binding result is “binds”.
Regarding B5, the binding result is reported as “binds”.
Still for that read-out and setting: the value for B10 was “binds”.
Consider B11, for which the binding result is “binds”.
On the same count and under the same terms, the value for B12 was “binds”.
